{
  "source": "IntAct's records for PubMed 31435016",
  "parents": {"B1": {"name": "Isoform 2 of ATP-binding cassette sub-family B member 8, mitochondrial (Homo sapiens), Q9NUT2-2 (parent)", "chain": "MLVHLFRVGIRGGPFPGRLLPPLRFQTFSAVRYSDGYRSSSLLRAVAHLRSQLWAHLPRAPLAPRWSPSAWCWVGGALLGPMVLSKHPHLCLVALCEAEEAPPASSTPHVVGSRFNWKLFWQFLHPHLLVLGVAVVLALGAALVNVQIPLLLGQLVEVVAKYTRDHVGSFMTESQNLSTHLLILYGVQGLLTFGYLVLLSHVGERMAVDMRRALFSSLLRQDITFFDANKTGQLVSRLTTDVQEFKSSFKLVISQGLRSCTQVAGCLVSLSMLSTRLTLLLMVATPALMGVGTLMGSGLRKLSRQCQEQIARAMGVADEALGNVRTVRAFAMEQREEERYGAELEACRCRAEELGRGIALFQGLSNIAFNCMVLGTLFIGGSLVAGQQLTGGDLMSFLVASQTVQRSMANLSVLFGQVVRGLSAGARVFEYMALNPCIPLSGGCCVPKEQLRGSVTFQNVCFSYPCRPGFEVLKDFTLTLPPGKIVALVGQSGGGKTTVASLLERFYDPTAGVVMLDGRDLRTLDPSWLRGQVVGFISQEPVLFGTTIMENIRFGKLEASDEEVYTAAREANAHEFITSFPEGYNTVVGERGTTLSGGQKQRLAIARALIKQPTVLILDEATSALDAESERVVQEALDRASAGRTVLVIAHRLSTVRGAHCIVVMADGRVWEAGTHEELLKKGGLYAELIRRQALDAPRTAAPPPKKPEGPRSHQHKS", "partner": "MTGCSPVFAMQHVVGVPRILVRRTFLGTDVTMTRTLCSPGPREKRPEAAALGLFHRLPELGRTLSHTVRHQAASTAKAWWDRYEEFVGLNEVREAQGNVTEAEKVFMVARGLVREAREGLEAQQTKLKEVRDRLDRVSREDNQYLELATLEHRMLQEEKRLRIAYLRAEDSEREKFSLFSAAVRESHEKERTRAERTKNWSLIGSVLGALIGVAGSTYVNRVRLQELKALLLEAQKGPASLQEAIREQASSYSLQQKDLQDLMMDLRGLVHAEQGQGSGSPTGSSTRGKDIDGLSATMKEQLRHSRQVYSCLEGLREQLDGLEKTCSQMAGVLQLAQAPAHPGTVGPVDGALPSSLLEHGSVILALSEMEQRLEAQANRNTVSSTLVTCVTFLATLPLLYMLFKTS"}},
  "data": [
    {"variants_of": "B1", "conditions": "with Ccdc51, Q3URS9-1", "values": [
      {"variant": "K496A", "effect of a mutation on the interaction": "with no effect"}
    ]}
  ]
}
